Assay results taken from paper PMC4721540, “Selective activators of protein phosphatase 5 target the auto-inhibitory mechanism” (Bioscience Reports, 2015).

B1: PPH-5 (protein phosphatase homologue), PP5 from nematode origin (enzyme, C. elegans, UniProt Q9NES8 1-496, looked up)
chain: MAATITDDIVATVLESIEEKSYEDEKEKAGMIKDEANQFFKDQVYDVAADLYSVAIEIHPTAVLYGNRAQAYLKKELYGSALEDADNAIAIDPSYVKGFYRRATANMALGRFKKALTDYQAVVKVCPNDKDARAKFDECSKIVRRQKFEAAISTDHDKKTVAETLDINAMAIEDSYDGPRLEDKITKEFVLQLIKTFKNQQKLHKKYAFKMLLEFYNYVKSLPTMVEITVPTGKKFTICGDVHGQFYDLCNIFEINGYPSETNPYLFNGDFVDRGSFSVETIFTMIGFKLLYPNHFFMSRGNHESDVMNKMYGFEGEVKAKYTQQMCDMFTETFCWLPLCHLINEKIFVCHGGLFKEDGVTLEDIRKTDRNRQPPDEGIMCDLLWSDPQPINGRSPSKRGVGCQFGPDVTSKWCETNGIEYVVRSHEVKPEGYEMHHNGQCFTVFSAPNYCDQMNNKGAFITITGDNLTPRFTPFDAVPHPKLPPMAYANSLFGFN
notes: PPH-5, the protein phosphatase 5 homologue of C. elegans; also called nematode PPH-5; PPH-5 (C. elegans); source: cloning and purification as described before [32-35]
B2: C-terminal Hsp90/DAF-21 peptide (AEEDASRMEEVD) (peptide)
peptide: AEEDASRMEEVD
notes: C-terminal peptide of Hsp90/DAF-21 of C. elegans; also called MEEVD peptide; MEEVD-containing peptide; source: bought: Biomatik

Assays:
[1] = target: T1, YFP-CeHsp90/DAF-21 (C. elegans, UniProt Q18688 1-702); experiment: AUC; sedimentation velocity with fluorescence detection; 300 nM labelled YFP–Hsp90, 3 μM PPH-5; 40 mM HEPES/KOH, pH 7.5, 20 mM KCl, 1 mM DTT; 20°C, 142000 g, 12 h; P5SAs at maximal soluble concentrations or 60 μM C-terminal Hsp90/DAF-21 peptide added where indicated; conditions: both partners purified
T1 construct: Hsp90 of C. elegans (CeHsp90/DAF-21); Detected in the AUC by YFP fluorescence; also called YFP–Hsp90; YFP-tagged Hsp90; source: cloning and purification as described before [32-35]

[2] = target: B1; experiment: as above; conditions: both partners purified

binding result [1] | binding result [2] | Binder
binds | – | B1
– | binds | B2
